Measured values reported in article PMC7145567.

Target: HMGA1a, non-phosphorylated (wt) (UniProt P17096 1-107)
Assay: ITC

HMGA1a, non-phosphorylated (wt), sequence (P17096 whole entry): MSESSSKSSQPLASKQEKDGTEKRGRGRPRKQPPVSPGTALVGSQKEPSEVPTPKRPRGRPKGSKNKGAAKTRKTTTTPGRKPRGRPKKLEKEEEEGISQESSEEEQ

B1: PRD2 element of NFkB promoter (dsDNA)
DNA 1: GGGAAATTCCTC
DNA 2: GAGGAATTTCCC
  Kd: ~100 nM
